In the assay the target is GST-Fbw7 (residues 263 to 707)-Skp1 complex, Q969H0. Nature of the assay: AlphaScreen or HTRF. (In general: Alpha assays give light when donor and acceptor beads are brought close together.)

Square brackets hold non-standard residues; d marks the D form. Ends that are not written are not given here. pT = C[C@@H](OP(=O)(O)O)[C@H](N)C(=O)O; pS = N[C@@H](COP(=O)(O)O)C(=O)O

B1: Myc T58 degron peptide, diphosphorylated (pT58/pS62) (peptide)
peptide: EDIWKKFELLP[pT]PPL[pS]PSRR
As a reminder, the IC50 is the concentration at which inhibition is half-maximal. High values mean weaker potency, low ones greater potency. For B1, the IC50 was 9.8 nM. In other words, the single-digit nanomolar range.
